Test results reported in patent US20260015399A1 (Boehringer Ingelheim, published 2026).
*1 amine or outer side, *2 acyl side, *3 side chain or, on linkers, in order; H or OH if unused. Side-chain parts run from the residue outwards. The star is where a group is joined. C18 diacid = O=C(O)CCCCCCCCCCCCCCCCC(=O)*; γGlu = O=C(O)[C@H](CCC(=O)[*:2])N[*:1]; Isovaleryl = CC(C)CC(=O)*; Ahx = NCCCCCC(=O)O

T1: human NPY2 receptor (human, UniProt P49146 1-381)
T1 construct: whole, on cells; also called hNPY2-R; hNPY2R
T1 sequence (looked up): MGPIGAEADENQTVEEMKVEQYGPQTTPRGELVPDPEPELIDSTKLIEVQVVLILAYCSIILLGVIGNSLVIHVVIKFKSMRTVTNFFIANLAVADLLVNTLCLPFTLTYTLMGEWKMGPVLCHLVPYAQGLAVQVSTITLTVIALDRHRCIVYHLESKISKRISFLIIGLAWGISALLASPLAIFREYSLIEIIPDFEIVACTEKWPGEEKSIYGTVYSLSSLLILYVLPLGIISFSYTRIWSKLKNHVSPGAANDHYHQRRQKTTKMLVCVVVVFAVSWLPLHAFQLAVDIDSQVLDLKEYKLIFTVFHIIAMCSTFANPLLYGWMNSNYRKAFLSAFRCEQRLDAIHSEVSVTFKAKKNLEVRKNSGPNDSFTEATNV

B1: Compound 57 (peptide)
peptide: Isovaleryl-APAK([Ahx-γGlu-C18 diacid])PEEDATPEEAQRYYVSLRHYYNWLTRQRY-NH2
SMILES: CC(C)CC(=O)N[C@@H](C)C(=O)N1CCC[C@H]1C(=O)N[C@@H](C)C(=O)N[C@@H](CCCCNC(=O)CCCCCNC(=O)CC[C@H](NC(=O)CCCCCCCCCCCCCCCCC(=O)O)C(=O)O)C(=O)N1CCC[C@H]1C(=O)N[C@@H](CCC(=O)O)C(=O)N[C@@H](CCC(=O)O)C(=O)N[C@@H](CC(=O)O)C(=O)N[C@@H](C)C(=O)N[C@H](C(=O)N1CCC[C@H]1C(=O)N[C@@H](CCC(=O)O)C(=O)N[C@@H](CCC(=O)O)C(=O)N[C@@H](C)C(=O)N[C@@H](CCC(N)=O)C(=O)N[C@@H](CCCNC(=N)N)C(=O)N[C@@H](Cc1ccc(O)cc1)C(=O)N[C@@H](Cc1ccc(O)cc1)C(=O)N[C@H](C(=O)N[C@@H](CO)C(=O)N[C@@H](CC(C)C)C(=O)N[C@@H](CCCNC(=N)N)C(=O)N[C@@H](Cc1c[nH]cn1)C(=O)N[C@@H](Cc1ccc(O)cc1)C(=O)N[C@@H](Cc1ccc(O)cc1)C(=O)N[C@@H](CC(N)=O)C(=O)N[C@@H](Cc1c[nH]c2ccccc12)C(=O)N[C@@H](CC(C)C)C(=O)N[C@H](C(=O)N[C@@H](CCCNC(=N)N)C(=O)N[C@@H](CCC(N)=O)C(=O)N[C@@H](CCCNC(=N)N)C(=O)N[C@@H](Cc1ccc(O)cc1)C(N)=O)[C@@H](C)O)C(C)C)[C@@H](C)O
B2: Compound 59 (peptide)
peptide: Isovaleryl-APAK([Ahx-γGlu-C18 diacid])PEEDASPEELQRYYVQLRHYYNWLTRQRY-NH2
SMILES: CC(C)CC(=O)N[C@@H](C)C(=O)N1CCC[C@H]1C(=O)N[C@@H](C)C(=O)N[C@@H](CCCCNC(=O)CCCCCNC(=O)CC[C@H](NC(=O)CCCCCCCCCCCCCCCCC(=O)O)C(=O)O)C(=O)N1CCC[C@H]1C(=O)N[C@@H](CCC(=O)O)C(=O)N[C@@H](CCC(=O)O)C(=O)N[C@@H](CC(=O)O)C(=O)N[C@@H](C)C(=O)N[C@@H](CO)C(=O)N1CCC[C@H]1C(=O)N[C@@H](CCC(=O)O)C(=O)N[C@@H](CCC(=O)O)C(=O)N[C@@H](CC(C)C)C(=O)N[C@@H](CCC(N)=O)C(=O)N[C@@H](CCCNC(=N)N)C(=O)N[C@@H](Cc1ccc(O)cc1)C(=O)N[C@@H](Cc1ccc(O)cc1)C(=O)N[C@H](C(=O)N[C@@H](CCC(N)=O)C(=O)N[C@@H](CC(C)C)C(=O)N[C@@H](CCCNC(=N)N)C(=O)N[C@@H](Cc1c[nH]cn1)C(=O)N[C@@H](Cc1ccc(O)cc1)C(=O)N[C@@H](Cc1ccc(O)cc1)C(=O)N[C@@H](CC(N)=O)C(=O)N[C@@H](Cc1c[nH]c2ccccc12)C(=O)N[C@@H](CC(C)C)C(=O)N[C@H](C(=O)N[C@@H](CCCNC(=N)N)C(=O)N[C@@H](CCC(N)=O)C(=O)N[C@@H](CCCNC(=N)N)C(=O)N[C@@H](Cc1ccc(O)cc1)C(N)=O)[C@@H](C)O)C(C)C
B3: Compound 62 (peptide)
peptide: Isovaleryl-APAK([Ahx-γGlu-C18 diacid])PPEDASPEELQRYYVELRHYYNWLTRQRY-NH2
SMILES: CC(C)CC(=O)N[C@@H](C)C(=O)N1CCC[C@H]1C(=O)N[C@@H](C)C(=O)N[C@@H](CCCCNC(=O)CCCCCNC(=O)CC[C@H](NC(=O)CCCCCCCCCCCCCCCCC(=O)O)C(=O)O)C(=O)N1CCC[C@H]1C(=O)N1CCC[C@H]1C(=O)N[C@@H](CCC(=O)O)C(=O)N[C@@H](CC(=O)O)C(=O)N[C@@H](C)C(=O)N[C@@H](CO)C(=O)N1CCC[C@H]1C(=O)N[C@@H](CCC(=O)O)C(=O)N[C@@H](CCC(=O)O)C(=O)N[C@@H](CC(C)C)C(=O)N[C@@H](CCC(N)=O)C(=O)N[C@@H](CCCNC(=N)N)C(=O)N[C@@H](Cc1ccc(O)cc1)C(=O)N[C@@H](Cc1ccc(O)cc1)C(=O)N[C@H](C(=O)N[C@@H](CCC(=O)O)C(=O)N[C@@H](CC(C)C)C(=O)N[C@@H](CCCNC(=N)N)C(=O)N[C@@H](Cc1c[nH]cn1)C(=O)N[C@@H](Cc1ccc(O)cc1)C(=O)N[C@@H](Cc1ccc(O)cc1)C(=O)N[C@@H](CC(N)=O)C(=O)N[C@@H](Cc1c[nH]c2ccccc12)C(=O)N[C@@H](CC(C)C)C(=O)N[C@H](C(=O)N[C@@H](CCCNC(=N)N)C(=O)N[C@@H](CCC(N)=O)C(=O)N[C@@H](CCCNC(=N)N)C(=O)N[C@@H](Cc1ccc(O)cc1)C(N)=O)[C@@H](C)O)C(C)C
B4: Compound 58 (peptide)
peptide: Isovaleryl-APEK([Ahx-γGlu-C18 diacid])PEEDATPEEVQRYYVSLRHYYNWLTRQRY-NH2
SMILES: CC(C)CC(=O)N[C@@H](C)C(=O)N1CCC[C@H]1C(=O)N[C@@H](CCC(=O)O)C(=O)N[C@@H](CCCCNC(=O)CCCCCNC(=O)CC[C@H](NC(=O)CCCCCCCCCCCCCCCCC(=O)O)C(=O)O)C(=O)N1CCC[C@H]1C(=O)N[C@@H](CCC(=O)O)C(=O)N[C@@H](CCC(=O)O)C(=O)N[C@@H](CC(=O)O)C(=O)N[C@@H](C)C(=O)N[C@H](C(=O)N1CCC[C@H]1C(=O)N[C@@H](CCC(=O)O)C(=O)N[C@@H](CCC(=O)O)C(=O)N[C@H](C(=O)N[C@@H](CCC(N)=O)C(=O)N[C@@H](CCCNC(=N)N)C(=O)N[C@@H](Cc1ccc(O)cc1)C(=O)N[C@@H](Cc1ccc(O)cc1)C(=O)N[C@H](C(=O)N[C@@H](CO)C(=O)N[C@@H](CC(C)C)C(=O)N[C@@H](CCCNC(=N)N)C(=O)N[C@@H](Cc1c[nH]cn1)C(=O)N[C@@H](Cc1ccc(O)cc1)C(=O)N[C@@H](Cc1ccc(O)cc1)C(=O)N[C@@H](CC(N)=O)C(=O)N[C@@H](Cc1c[nH]c2ccccc12)C(=O)N[C@@H](CC(C)C)C(=O)N[C@H](C(=O)N[C@@H](CCCNC(=N)N)C(=O)N[C@@H](CCC(N)=O)C(=O)N[C@@H](CCCNC(=N)N)C(=O)N[C@@H](Cc1ccc(O)cc1)C(N)=O)[C@@H](C)O)C(C)C)C(C)C)[C@@H](C)O
B5: Compound 61 (peptide)
peptide: Isovaleryl-APEK([Ahx-γGlu-C18 diacid])PPADASPEEIQRYYVSLRHYYNWLTRQRY-NH2
SMILES: CC[C@H](C)[C@H](NC(=O)[C@H](CCC(=O)O)NC(=O)[C@H](CCC(=O)O)NC(=O)[C@@H]1CCCN1C(=O)[C@H](CO)NC(=O)[C@H](C)NC(=O)[C@H](CC(=O)O)NC(=O)[C@H](C)NC(=O)[C@@H]1CCCN1C(=O)[C@@H]1CCCN1C(=O)[C@H](CCCCNC(=O)CCCCCNC(=O)CC[C@H](NC(=O)CCCCCCCCCCCCCCCCC(=O)O)C(=O)O)NC(=O)[C@H](CCC(=O)O)NC(=O)[C@@H]1CCCN1C(=O)[C@H](C)NC(=O)CC(C)C)C(=O)N[C@@H](CCC(N)=O)C(=O)N[C@@H](CCCNC(=N)N)C(=O)N[C@@H](Cc1ccc(O)cc1)C(=O)N[C@@H](Cc1ccc(O)cc1)C(=O)N[C@H](C(=O)N[C@@H](CO)C(=O)N[C@@H](CC(C)C)C(=O)N[C@@H](CCCNC(=N)N)C(=O)N[C@@H](Cc1c[nH]cn1)C(=O)N[C@@H](Cc1ccc(O)cc1)C(=O)N[C@@H](Cc1ccc(O)cc1)C(=O)N[C@@H](CC(N)=O)C(=O)N[C@@H](Cc1c[nH]c2ccccc12)C(=O)N[C@@H](CC(C)C)C(=O)N[C@H](C(=O)N[C@@H](CCCNC(=N)N)C(=O)N[C@@H](CCC(N)=O)C(=O)N[C@@H](CCCNC(=N)N)C(=O)N[C@@H](Cc1ccc(O)cc1)C(N)=O)[C@@H](C)O)C(C)C
B6: Compound 60 (peptide)
peptide: Isovaleryl-APEK([Ahx-γGlu-C18 diacid])PEEDASPEELQRYYVSLRHYYQWLTRQRY-NH2
SMILES: CC(C)CC(=O)N[C@@H](C)C(=O)N1CCC[C@H]1C(=O)N[C@@H](CCC(=O)O)C(=O)N[C@@H](CCCCNC(=O)CCCCCNC(=O)CC[C@H](NC(=O)CCCCCCCCCCCCCCCCC(=O)O)C(=O)O)C(=O)N1CCC[C@H]1C(=O)N[C@@H](CCC(=O)O)C(=O)N[C@@H](CCC(=O)O)C(=O)N[C@@H](CC(=O)O)C(=O)N[C@@H](C)C(=O)N[C@@H](CO)C(=O)N1CCC[C@H]1C(=O)N[C@@H](CCC(=O)O)C(=O)N[C@@H](CCC(=O)O)C(=O)N[C@@H](CC(C)C)C(=O)N[C@@H](CCC(N)=O)C(=O)N[C@@H](CCCNC(=N)N)C(=O)N[C@@H](Cc1ccc(O)cc1)C(=O)N[C@@H](Cc1ccc(O)cc1)C(=O)N[C@H](C(=O)N[C@@H](CO)C(=O)N[C@@H](CC(C)C)C(=O)N[C@@H](CCCNC(=N)N)C(=O)N[C@@H](Cc1c[nH]cn1)C(=O)N[C@@H](Cc1ccc(O)cc1)C(=O)N[C@@H](Cc1ccc(O)cc1)C(=O)N[C@@H](CCC(N)=O)C(=O)N[C@@H](Cc1c[nH]c2ccccc12)C(=O)N[C@@H](CC(C)C)C(=O)N[C@H](C(=O)N[C@@H](CCCNC(=N)N)C(=O)N[C@@H](CCC(N)=O)C(=O)N[C@@H](CCCNC(=N)N)C(=O)N[C@@H](Cc1ccc(O)cc1)C(N)=O)[C@@H](C)O)C(C)C

molecular target: T1, human NPY2 receptor; test: RLB: displacement of 125I-PYY(1-36) from hNPY2R membranes

Ki | Binder
2.07 nM | B1
1.93 nM | B2
1.44 nM | B3
3.46 nM | B4
0.41 nM | B5
6.04 nM | B6
